How the values were obtained:
[1] = molecular target: SARS-CoV-2 euvirus S protein (SARS-CoV-2, UniProt P0DTC2 14-1273); test: cell-based or functional assay
[2] = molecular target: Biotin-ncov RBD (KACTUS, COV-VM4BDB) (SARS-CoV-2, UniProt P0DTC2 319-537); test: ELISA blocking assay: antibody titrated from 900 nM, blocks biotin-RBD (200 ng/mL) binding to coated ACE2-Fc

B1: P5-22 (antibody, V domains shown)
VH: EVQLVESGGGLVKPGGSLRLSCAASGFTFRDYDIIWIRQAPGKGLEWVSYISRSGSTIYYSDSVRGRFTISRDNAKNSVYLQMNSLRAEDTAVYYCARDFGFEGPRMDVWGQGTTVTVSS
VL: DIQMTQSPSSLSASVGDRVTITCQASQDIKNYLNWYQQKPGKAPKLLIYDASNLETGVPSRFSGSGSGTDFTFTISSLQPEDIATYYCQQFDNLPITFGQGTRLEIK
notes: also called candidate antibody molecule P5-22
- EC50, neutralization of SARS-CoV-2 euvirus infection of VERO-E6 cells (CPE, day 4) [1]: 0.00657 µg/mL
- IC50 [2]: 1.08 nM

B2: P15-16 (antibody, V domains shown)
VH: QVQLVESGGGLVQPGRSLTLSCAASGFTFDDYAMHWVRQAPGKGLEWVSGISWNSGTIDYADSVKGRFTISRDNAKNSLYLQMNSLRAEDTALYYCATLPRERAYSGYDRIFYTIDVWGQGTTVTVSS
VL: not shown
notes: also called candidate antibody molecule P15-16
- IC50 [2]: 1.39 nM

B3: P14-44 (antibody, V domains shown)
VH: QVQLVQSGAEVKKPGASVKVSCKASGYIFTSYSMHWVRQAPGQGLEWMGTIKPSDDSTNYAQKFQGRVSMTRDTSTSTVYMELSSLRYEDTAVYYCAREARGYYDRSGYYHPGYFDYWGQGTLVTVSS
VL: QSVLTQPASVSGSPGQSITISCTGTSSDVGGYNFVSWYQQHPGKAPKLMIYEVSDRPSGVSSRFSGSKSGNTASLTISGLQAEDEADYYCFSYTTSTTWVFGGGTKLTVL
notes: also called candidate antibody molecule P14-44
- EC50, neutralization of SARS-CoV-2 euvirus infection of VERO-E6 cells (CPE, day 4) [1]: 0.708 µg/mL
- IC50 [2]: 0.863 nM

B4: P14-37 (antibody, V domains shown)
VH: EVQLVESGGGLVKPGGSLRLSCAASGFTFSNAWMSWVRQAPGKGLEWVGRIKRNSDGGTTDHAAPVTGRFIISRDDSKNTLYLQMNSLRTEDTAVYYCTTDLDTVVRRVVITDHDAFDIWGQGTMVTVSS
VL: DIQMTQSPSSLSASVGDRVTITCRASQSISSFLNWYQQKAGKAPKLLIYAASSLQSGVPSRFSGSGSGTDFSLTISNLQPEDFATYYCQQSYSTPSITFGQGTRLEIK
notes: also called candidate antibody molecule P14-37
- IC50 [2]: 1.14 nM

B5: P3-11 (antibody, V domains shown)
VH: QVQLVESGGGLVQPGGSLRLSCAASGITVSSNYMSWVRQAPGKGLEWVSVIYSGGSTFYADPVKGRLTISRDNSKNTLYLQMNSVRVEDTAVYYCARGEGWELPFDYWGQGALVTVSS
VL: QSALTQPPSASGSPGQSVTISCTGTSSDVGGNKYVSWYQQHPGKAPKLIIYEVSKRPSGVPDRFSGSKSGNTASLTVSGLQAEDEADYHCSSYAGSNNLVFGGGTKLTVL
notes: also called candidate antibody molecule P3-11
- EC50, neutralization of SARS-CoV-2 euvirus infection of VERO-E6 cells (CPE, day 4) [1]: 0.195 µg/mL
- IC50 [2]: 1.1 nM

B6: P23-29 (antibody, V domains shown)
VH: QVQLQESGPGLVKPSETLSLTCTVSGDSISSSTYYWGWIRQPPGKGLEWIGSMYYGRSTYYNPSLKSRVTVSVDTSKNQLSLKVSSVTAADTAVYYCARHLGGVDYWGQGTLVTVSS
VL: DIQMTQSPSSLSASVGDRVTITCRASQGISNSLAWYQQEPGKAPKLLLYAASTLESGVPSRFSGSGSGADSTLTISSLQPEDFATYYCQQYYSASALTFGGGTKVEIK
notes: also called candidate antibody molecule P23-29
- EC50, neutralization of SARS-CoV-2 euvirus infection of VERO-E6 cells (CPE, day 4) [1]: 0.0488 µg/mL
- IC50 [2]: 1.2 nM

B7: P10-20 (antibody, V domains shown)
VH: QVQLVESGGGLVKPGGSLRLSCAASGFTFSDYYMSWIRQAPGKGLEWVSYISISSTYTNYADSVKGRFTISRDNAKNSLYLQMNSLRAEDTAVYYCVIAAAGKGHYYYGMDVWGQGTTVTVSS
VL: not shown
notes: also called candidate antibody molecule P10-20
- EC50, neutralization of SARS-CoV-2 euvirus infection of VERO-E6 cells (CPE, day 4) [1]: ~0.0752 µg/mL
- IC50 [2]: 0.957 nM

— patent US20230391854A1 (Innovent, published 2023)
